# ± gives the standard deviation of the averaged measurements.
# Columns and labels:
# [1] = system: Saccharomyces cerevisiae; test: protein stability index of tFT-peptide fusion (C-terminal peptide) (PSI (0-1 scale)); higher = more stable (slower turnover); conditions: genetic background: wild type; temperature: 30 C
# [2] = system: Saccharomyces cerevisiae; test: as above
# Description: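 MPS profiling in S. cerevisiae of the tFT-X12 degron library: putative degron peptides plus stable controls, 12 aa, fused to the C-terminus of a sfGFP-mCherry timer. Cells are FACS-sorted into 8 mCherry/sfGFP bins and deep-sequenced. PSI runs from 0 (unstable) to 1 (stable). Backgrounds are wild type, das1Δ and doa10Δ at 30 °C, and wild type, das1Δ, cdc34-1 and cdc53-1 at 37 °C; 2-3 technical replicates each.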
# [3] = genetic background: cdc34-1, temperature: 37 C
# [4] = genetic background: cdc53-1, temperature: 37 C
# [5] = genetic background: das1 deletion, temperature: 30 C
# [6] = genetic background: das1 deletion, temperature: 37 C
# [7] = genetic background: doa10 deletion, temperature: 30 C
# [8] = genetic background: wild type, temperature: 30 C
# [9] = genetic background: wild type, temperature: 37 C
# 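Further: PSI is a weighted mean of sequencing reads over stability bins, variants kept only with over 10 reads, mCherry proximal and sfGFP distal, peptide attached via GGGS linker.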
Sequence,protein stability index [1],"protein stability index [2, 3]","protein stability index [2, 4]","protein stability index [2, 5]","protein stability index [2, 6]","protein stability index [2, 7]","protein stability index [2, 8]","protein stability index [2, 9]"
VERKLMTIYIKI,0.493 ± 0.005,0.6106 ± 0.0052,0.6479 ± 0.003,0.451 ± 0.018,0.6806 ± 0.0061,0.492 ± 0.015,0.499 ± 0.063,0.6076 ± 0.00061
WWDCAVWVRCGG,0.471 ± 0.015,0.477 ± 0.026,0.471 ± 0.0077,0.382 ± 0.024,0.5379 ± 0.0022,0.407 ± 0.013,0.382 ± 0.019,0.516 ± 0.012
SFFFTLLICFLF,0.253 ± 0.011,0.161 ± 0.017,0.107 ± 0.0062,0.234 ± 0.0085,0.312 ± 0.0082,0.26 ± 0.021,0.166 ± 0.028,0.244 ± 0.018
LFWFRGTIVTPR,0.693 ± 0.034,0.693 ± 0.027,0.726 ± 0.017,0.638 ± 0.015,0.7371 ± 0.0069,0.635 ± 0.019,0.6335 ± 0.0044,0.705 ± 0.018
RLMLSWLALRRC,0.476 ± 0.0067,0.617 ± 0.058,0.665 ± 0.015,0.601 ± 0.036,0.689 ± 0.02,0.351 ± 0.026,0.344 ± 0.068,0.575 ± 0.0095
CVLLVFLHLCLA,0.381 ± 0.0019,0.292 ± 0.0051,0.392 ± 0.022,0.283 ± 0.027,0.4448 ± 0.0025,0.256 ± 0.014,0.263 ± 0.049,0.402 ± 0.0075
LCSCAVVICCSL,0.377 ± 0.04,0.445 ± 0.0054,0.4359 ± 0.0021,0.299 ± 0.031,0.4631 ± 0.0044,0.274 ± 0.0047,0.309 ± 0.0072,0.441 ± 0.019
GLGMVIIGLLIG,0.354 ± 0.022,0.176 ± 0.011,0.342 ± 0.09,0.224 ± 0.032,0.432 ± 0.042,0.191 ± 0.0035,0.227 ± 0.01,0.387 ± 0.0056
VFSVSVLFLFFH,0.377 ± 0.032,0.286 ± 0.0084,0.392 ± 0.0056,0.282 ± 0.034,0.456 ± 0.015,0.251 ± 0.011,0.242 ± 0.038,0.381 ± 0.019
HGVYSVLRFFFC,0.453 ± 0.0086,0.664 ± 0.038,0.723 ± 0.021,0.659 ± 0.011,0.671 ± 0.03,0.329 ± 0.0035,0.365 ± 0.017,0.579 ± 0.023
IHCLSIVVHGLS,0.499 ± 0.043,0.527 ± 0.045,0.569 ± 0.047,0.471 ± 0.024,0.588 ± 0.0099,0.48 ± 0.016,0.475 ± 0.019,0.563 ± 0.027
GRGLGHWWTVRT,0.751 ± 0.033,0.672 ± 0.03,0.756 ± 0.024,0.698 ± 0.017,0.741 ± 0.015,0.689 ± 0.013,0.704 ± 0.0092,0.716 ± 0.012
RNKIWCTVIMRL,0.4002 ± 0.0026,0.51 ± 0.042,0.537 ± 0.0088,0.453 ± 0.036,0.597 ± 0.02,0.229 ± 0.01,0.234 ± 0.046,0.396 ± 0.02
PCYRPPLPALLS,0.501 ± 0.013,0.613 ± 0.013,0.69 ± 0.0093,0.62 ± 0.036,0.705 ± 0.024,0.395 ± 0.024,0.43 ± 0.03,0.568 ± 0.033
YMPKHKIQKLMQ,0.491 ± 0.067,0.701 ± 0.02,0.728 ± 0.032,0.639 ± 0.023,0.7635 ± 0.0046,0.425 ± 0.012,0.46 ± 0.023,0.607 ± 0.018
FWFLWAKMLLSC,0.175 ± 0.022,0.253 ± 0.015,0.212 ± 0.064,0.252 ± 0.032,0.377 ± 0.0081,0.0958 ± 0.02,0.109 ± 0.027,0.138 ± 0.023
